We go through 1 molecule from patent publication US20210277147A1 (SINO SWED TONGKANG BIO TECH SHENZHEN, published 2021).

Assay [1] deals with T1, recombinant human thymidine kinase 1 (hTK1) protein (human, UniProt P04183 1-234, limits assumed).
T1 construct: ELISA coating antigen at 0.5 ug/ml, 100 ul per well (50 ng/well); also called recombinant hTK1 antigen
T1 sequence (looked up): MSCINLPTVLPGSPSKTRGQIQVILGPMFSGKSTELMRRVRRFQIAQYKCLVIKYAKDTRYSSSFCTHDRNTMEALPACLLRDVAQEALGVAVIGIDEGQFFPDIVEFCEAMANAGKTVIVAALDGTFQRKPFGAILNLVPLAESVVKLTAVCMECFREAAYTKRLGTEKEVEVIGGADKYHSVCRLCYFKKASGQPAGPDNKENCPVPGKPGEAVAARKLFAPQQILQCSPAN
Kind of assay: indirect ELISA, hTK1-coated wells against coating-solution wells, HRP-labeled anti-HA monoclonal antibody detection. The procedure: (§1) The recombinant IgY scFv antibody contains not only the hypervariable region that binds to hTK1, but also the highly conserved framework region (FR). In this embodiment, the HA 9-peptide tag of human influenza hemagglutinin was added. Therefore, when detecting recombinant single-chain antibodies by indirect ELISA, biotin-labeled anti-full-length IgY secondary antibody and horseradish peroxidase-labeled anti-human influenza hemagglutinin HA 9-peptide monoclonal antibodies were used as labeled antibodies, to detect recombinant anti-hTK1 single-chain antibody expressed in CHO cells. The supernatant of the transfected cells was collected and the expression level of recombinant scFv antibody was detected by ELISA experiment. The specific method is as follows:
(§2) The OD value of the CHO cell supernatant transfected with the scFv antibody gene is 6.6 times that of the CHO cell supernatant not transfected, and the ratio of the recombinant hTK1 antigen to the negative antigen control is 6.9.
Background: ELISA stands for enzyme-linked immunosorbent assay.

Assay [2] concerns the target T1, recombinant human thymidine kinase 1 …. Kind of assay: indirect ELISA on coated hTK1, HRP-labeled anti-HA monoclonal antibody detection. The procedure: as §1, §2
For assay [3] the target is unchanged. Kind of assay: indirect ELISA, hTK1-coated wells against coating-solution wells, anti-full-length IgY biotin detection. The procedure: as §1, §2
Assay [4] shares this target. Description: indirect ELISA on coated hTK1, anti-full-length IgY biotin detection. The method, then:
as §1, §2

B1: recombinant anti-hTK1 chicken IgY single-chain variable fragment (scFv) antibody expressed in CHO cells (scFv)
scFv: MAAVTLDESGGGLQTPGGALSLVCKGSGFTFSSDAMGWMRQAPGKGLEFVARINSAGSYTDYGSAVDGRATISRDNGQSTVRLQLNNLRAEDTSTYFCAKSPGGFSCAYGLCWDAAGSIDAWGHGTEVIVSSGGGSGGGGSGGGGSGGGSALTQPSSVSANLGGTVKITCSGGANYYGWFQQKTPGSAPVSLIYESTKRPSNIPSRFSGSKSGSTGTLTITGVRADDEAVYYCGTYDSSTHTSIFGAGTTLYPYDVPDYA
notes: Tested as unpurified supernatant of transiently transfected CHO cells; also called recombinant IgY scFv antibody; recombinant anti-hTK1 single-chain antibody
As for B1, the “ratio of the recombinant hTK1 antigen to the negative antigen control” value in assay [1] was 0.287 ratio; in assay [3], 6.9 ratio. For the same molecule, in assay [2], the “OD ratio to the untransfected CHO cell supernatant” value stood at 2.6 fold. Moreover, the “OD ratio to the CHO cell supernatant not transfected” value in assay [4] was determined as 6.6 fold.
